This is an account of results in publication PMC9176245.

“And” between values parts separate entries of the source, which are not always exact repeats. Equal values may be shown once.

Holding throughout (assay): filter binding
Data set [1] deals with T1, Cbf5;Nop10;Gar1;Nhp2 (Saccharomyces cerevisiae;Saccharomyces cerevisiae;Saccharomyces cerevisiae;Saccharomyces cerevisiae) (UniProt P33322+Q6Q547+P28007+P32495).
T1 sequence 1: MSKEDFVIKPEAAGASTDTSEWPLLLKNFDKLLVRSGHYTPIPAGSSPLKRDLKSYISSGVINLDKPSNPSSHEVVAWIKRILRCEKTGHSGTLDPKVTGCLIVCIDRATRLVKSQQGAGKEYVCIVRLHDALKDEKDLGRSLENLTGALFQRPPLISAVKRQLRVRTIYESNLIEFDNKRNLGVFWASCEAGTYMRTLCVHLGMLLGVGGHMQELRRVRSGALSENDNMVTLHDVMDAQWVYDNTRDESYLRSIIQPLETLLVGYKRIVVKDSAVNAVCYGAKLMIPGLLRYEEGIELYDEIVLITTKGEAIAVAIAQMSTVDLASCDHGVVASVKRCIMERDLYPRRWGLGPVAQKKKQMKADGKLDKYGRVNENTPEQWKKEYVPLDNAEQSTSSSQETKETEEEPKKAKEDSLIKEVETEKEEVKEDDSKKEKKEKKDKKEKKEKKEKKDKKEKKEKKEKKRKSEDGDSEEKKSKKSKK
T1 sequence 2: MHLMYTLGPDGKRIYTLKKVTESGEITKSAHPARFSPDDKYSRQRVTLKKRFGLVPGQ
T1 sequence 3: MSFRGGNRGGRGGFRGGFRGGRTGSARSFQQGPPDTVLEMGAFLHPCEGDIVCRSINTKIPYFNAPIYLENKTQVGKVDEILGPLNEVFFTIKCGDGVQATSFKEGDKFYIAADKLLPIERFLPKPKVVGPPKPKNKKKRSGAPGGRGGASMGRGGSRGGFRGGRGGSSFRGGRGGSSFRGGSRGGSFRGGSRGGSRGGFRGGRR
T1 sequence 4: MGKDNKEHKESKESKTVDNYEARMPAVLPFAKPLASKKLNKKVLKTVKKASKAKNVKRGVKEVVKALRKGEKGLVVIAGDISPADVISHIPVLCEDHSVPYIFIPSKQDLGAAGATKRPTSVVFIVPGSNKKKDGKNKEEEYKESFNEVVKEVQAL
Particulars: 20 mM HEPES-KOH pH 7.4, 150 mM NaCl, 1.5 mM MgCl2, 10% glycerol, 30°C, 10 min; nitrocellulose filtration.

The target of data set [2] is T2, Nhp2 (Saccharomyces cerevisiae) (UniProt P32495).
T2 sequence: T1 sequence 4
The note with it: Nhp2 alone, 20 mM HEPES-KOH pH 7.4, 150 mM NaCl, 1.5 mM MgCl2, 10% glycerol, 30°C, 10 min, nitrocellulose filtration.

Another data set addresses T3, Utp23 (Saccharomyces cerevisiae?) (UniProt Q12339).
T3 sequence: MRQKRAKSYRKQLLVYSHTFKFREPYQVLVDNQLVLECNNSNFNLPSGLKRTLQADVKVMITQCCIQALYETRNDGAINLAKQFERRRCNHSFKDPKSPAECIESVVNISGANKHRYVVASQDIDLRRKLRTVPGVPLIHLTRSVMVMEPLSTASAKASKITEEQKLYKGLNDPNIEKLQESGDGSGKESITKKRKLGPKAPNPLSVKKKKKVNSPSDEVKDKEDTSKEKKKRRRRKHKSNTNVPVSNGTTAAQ
Particulars: 20 mM HEPES-KOH pH 7.4, 150 mM NaCl, 1.5 mM MgCl2, 10% glycerol, 30°C, 10 min; nitrocellulose filtration.

Data set [3] addresses T4, Cbf5;Nop10;Gar1 (Saccharomyces cerevisiae;Saccharomyces cerevisiae;Saccharomyces cerevisiae) (UniProt P33322+Q6Q547+P28007).
T4 sequence 1: T1 sequence 1
T4 sequence 2: T1 sequence 2
T4 sequence 3: T1 sequence 3
The note with it: no Nhp2; single replicate; 20 mM HEPES-KOH pH 7.4, 150 mM NaCl, 1.5 mM MgCl2, 10% glycerol, 30°C, 10 min; nitrocellulose filtration.

For the substance snR30 full-length, the Kd in data set [1] was 0.9 nM; in data set [2] (replicate 1), 116 nM; in data set [2] (replicate 2), 212 nM; in the data set with Utp23, 17.5 nM; in data set [3], 1.2 nM.

“GGGCCGACUAGGGAUCGGGUGGUGUUUUUUUAAUGACCCACUCGGCACCUUACGAGAAAUCAAAGUCUUUGGGU [H25/26]”: in data set [1], the Kd was found to be 92 nM.

As to mitochondrial tRNAMet, the Kd is 746 nM in data set [1] and less than 2 nM in the data set with Utp23.

For snR81, the Kd with Utp23 was 4.7 nM.

With “GGGUUAAUAGGGACGGUCGGGGGCAUCAGUAUUCAAUUGUCAGAGGUGAAAUUCUUGGAUUUAUUGAAGACUAACUACUGCGAAAGCAUUUGCCAAGGACGUUUUC [H22/23]”, the Kd stood at 84 nM in data set [1] and 8.8 nM with Utp23.

In the case of “GGGAUUUUUUCGUGUACUGGAUUUCCAACGGGGCCUUUCCUUCUGGCUAACCUUGAGUCCUUGUGGCUCUUGGCGAACCAGGA [C2-ES6H1]”, in data set [1], the Kd is 405 nM and 560 nM.

The Kd is a measure of binding affinity in units of concentration.
